Test results from patent publication US7211422B2, “Polypeptide having α-isomaltosylglucosaccharide synthase activity” (Kabushiki Kaisha Hayashibara Seibutsu Kagaku Kenkyujo, priority 2001, dated 2007).

Experiments:
[1] = Test on reducing-power formation; type: biochemical; conditions: 1% (w/v) maltotetraose, 0.25 unit/g substrate, 35° C., pH 6.0 (pH 8.4 for A19)
Procedure: The following test was carried out to study whether the polypeptide having α-isomaltosylglucosaccharide-forming enzyme activity had the ability of forming reducing-power or not. To a 1% (w/v) aqueous solution of maltotetraose as a substrate was added 0.25 unit/g substrate, d.s.b., of either of purified polypeptide specimen of α-isomaltosylglucosaccharide-forming enzyme from Bacillus globisporus C11 obtained by the method in Experiment 1-3, Bacillus globisporus N75 obtained by the method in Experiment2-3, or Arthrobacter globiformis A19 obtained by the method in Experiment 3-3, and incubated at 35° C. and at pH 6.0, except that pH 8.4 was used for the enzyme from Arthrobacter globiformis A19. During the reaction, a portion of each reaction mixture was sampled at prescribed time intervals and measured for reducing power after keeping at 100° C. for 10 minutes to stop the enzymatic reaction. Before and after the enzymatic reaction, the reducing sugar content and total sugar content were respectively quantified by the Somogyi-Nelson method and anthrone-sulfuric acid method. The percentage of forming reducing power was calculated by the following equation: Percentage of forming reducing power (%)=(AR/AT−BR/BT)×100 Equation: • AR: Reducing sugar content after enzymatic reaction. • AT: Total sugar content after enzymatic reaction. • BR: Reducing sugar content before enzymatic reaction. • BT: Total sugar content before enzymatic reaction.

[2] = Isoelectric point by isoelectrophoresis (2% ampholine gel); type: physicochemical; conditions: gel containing 2% (w/v) ampholine
Excerpt: Purified specimens of the polypeptide having α-isomaltosylglucosaccharide-forming enzyme activity from Bacillus globisporus C11 obtained by the method in Experiment 1-3, Bacillus globisporus N75 obtained by the method in Experiment 2–3, and Arthrobacter globiformis A19 obtained by the method in Experiment 3-3 were subjected to isoelectrophoresis using a gel containing 2% (w/v) ampholine commercialized by Amersham Biosciences K. K., Tokyo, Japan (old name, Amersham Pharmacia Biotech), and then measured pHs of protein bands and gel to determine their isoelectric points.

[3] = Effect of temperature and pH on α-isomaltosylglucosaccharide-forming enzyme activity; type: biochemical; conditions: for Optimum temperature: pH 8.4 for 60 minutes
Procedure: The two types of enzymatic activities described above were measured as following. The activity of α-isomaltosylglucosaccharide-forming enzyme was measured by the following assay: A substrate solution was prepared by dissolving maltotriose in 100 mM acetate buffer (pH 6.0) to give a concentration of 2% (w/v). A reaction mixture was prepared by mixing 0.5 ml of the substrate solution and 0.5 ml of an enzyme solution, and incubated at 35° C. for 60 minutes. After stopping the reaction by boiling for 10 minutes, the amount of maltose formed in the reaction mixture was determined by high-performance liquid chromatography (HPLC). One unit of α-isomaltosylglucosaccharide-forming activity was defined as the amount of the enzyme that forms one μmole of maltose per minute under the above conditions. HPLC was carried out using “SHODEX KS-801 column”, Showa Denko K. K., Tokyo, Japan, at a column temperature of 60° C. and a flow rate of 0.5 ml/minutes of water, and using “RI-8012”, a differential refractometer commercialized by Tosoh Corporation, Tokyo, Japan.
The effect of temperature and pH on the α-isomaltosylglucosaccharide-forming enzyme activity was examined in accordance with the assay for the α-isomaltosylglucosaccharide-forming enzyme activity under various temperature and pH conditions. The effect of temperature was conducted in the presence or absence of 1 mM Ca^2+. […] The optimum temperature of the polypeptide having α-isomaltosylglucosaccharide-forming enzyme activity from a strain C11 was about 45° C. (in the absence of Ca^2+) and about 50° C. (in the presence of Ca^2+) when incubated at pH 6.0 for 60 minutes, and the optimum pH was about 6.0 when incubated at 35° C. for 60 minutes. The optimum temperature of the polypeptide having α-isomaltosylglucosaccharide-forming enzyme activity from a strain N75 was about 50° C. (in the absence of Ca^2+) and about 55° C. (in the presence of Ca^2+) when incubated at pH 6.0 for 60 minutes, and the optimum pH was about 6.0 when incubated at 35° C. for 60 minutes. The optimum temperature of the polypeptide having α-isomaltosylglucosaccharide-forming enzyme activity from a strain A19 was about 60° C. (in the absence of Ca^2+) and about 65° C. (in the presence of Ca^2+) when incubated at pH 8.4 for 60 min, and the optimum pH was about 8.4 when incubated at 35° C. for 60 minutes.

[4] = Thermal stability and pH stability (residual enzyme activity); type: physicochemical; conditions: 20 mM Glycine-NaOH buffer pH 8.0, 60 minutes
Procedure: The thermal stability of the polypeptide having α-isomaltosylglucosaccharide-forming enzyme activity was determined by incubating the testing polypeptide solution in 20 mM acetate buffer, pH6.0 (in the case of the polypeptide from a strain A19, 20 m M Glycine-NaOH buffer, pH 8.0) at prescribed temperatures for 60 minutes in the presence or absence of 1 mM Ca^2+, cooling with water the resulting polypeptide solutions, and assaying the residual enzyme activity of each solution. The pH stability of the polypeptide having α-isomaltosylglucosaccharide-forming enzyme activity was determined by keeping the testing polypeptide solutions in 50 mM buffer having prescribed pHs at 4° C. for 24 hours, adjusting the pH of each solution to 6.0 (in the case of the polypeptide from a strain A19, pH 8.0), and assaying the residual enzyme activity of each solution. […] The thermal stability of the polypeptide having α-isomaltosylglucosaccharide-forming enzyme activity from a strain C11 was up to about 40° C. (in the absence of Ca^2+) and about 45° C. (in the presence of Ca^2+), and pH stability of about 5.0 to about 10.0. The thermal stability of the polypeptide having α-isomaltosylglucosaccharide-forming enzyme activity from a strain N75 was up to about 45° C. (in the absence of Ca^2+) and about 50° C. (in the presence of Ca^2+), and pH stability of about 5.0 to about 9.0. The thermal stability of the polypeptide having α-isomaltosylglucosaccharide-forming enzyme activity from a strain A19 was up to about 55° C. (in the absence of Ca^2+) and about 60° C. (in the presence of Ca^2+), and pH stability of about 5.0 to about 9.0.

B1: Enzyme of Strain A19: purified polypeptide having α-isomaltosylglucosaccharide-forming enzyme activity from Arthrobacter globiformis A19 (Experiment 3-3); contains SEQ ID NO: 3 (protein)
chain: APLGVQRAQFQSGSSYLVVEVLDDDLVHFELAGGGTAPGTGSPLFTTPQVAKHDYAGPDVFTQTGSVLQTAAMRIEVDPADLCVTATDITRTPNLVLHEACPADLGQAWKGLNITRSAMENAYGLGQQFFTGGSADGDWVGRTRTPGGTYGNAMVFDPENGPVGNTQIPVLFAVGDDNANYGLFVDQLYKQEWNLTGDPWTVRMWGDQVRWYLMSGDDLPDLRHDYMELTGTPPVPPKKAFGLWVSEFGYDNWSEVDNTIAGLRSADFPVDGAMLDVQWFGGVTADSDDTRMGTLDWDTSRFPDPAGKIADLAEDGVGIIPIEESYVGRNLPEHARMAADGYLVRSGCATCPPVYLTGNPWWGKGGMIDWTQPEAGAVWHDEQRQHLVDEGVLGHWLDLGEPEMYDPNDWTAGVIPGKHAHADYHNAYNLLWAQSIADGYADNGVQKRPFMLTRAAAAGIQRHGAGMWSADIGSTMKALGSQQNAQMHMSMSGIDYYGSDIGGFRREMADGDVNELYTQWFADSAWFDTPLRPHTDNLCNCLETSPDSIGDVASNRENLVRRYELAPYYYSLAHRAHQFGEPLAPPLVYYYQNDDHVREMGHQKMLGRDLLIAIVAGEGERERDVYLPAGEWIDIHTNERIQSTGQWIDNVPLWRDGVFTLPAYARAGAIIPKAFVDASTKDITGKREDAAVRNELIATVYADDVASDFTLYEDDGATTAYADGAVRTTQISQSLTNGVATVTVGAASGTYSGAPSTRPTVVELVTDGTQASTVSLGSVPLTEHANKAAFDAASSGWYNAGGGLVVAKAASSSVNTAKTFSFTLGEESVWATFSCENATTTFGQSVYVVGNVPQLGNWSPADAVKLEPSAYPTWTGVVRNLPPSSTVEWKCIKRQEAGLPNTADAWEPGGNNILSTPPSGSAGITTGAF
modifications: Arthrobacter globiformis A19
- Percentage of forming reducing power ([1]; reaction time 0 hour): 0.0%
- Percentage of forming reducing power ([1]; reaction time 1 hour): 0.0%
- Percentage of forming reducing power ([1]; reaction time 2 hours): 0.1%
- Percentage of forming reducing power ([1]; reaction time 4 hours): 0.0%
- Percentage of forming reducing power ([1]; reaction time 8 hours): 0.1%
- Isoelectric point [2]: about 4.3±0.5
- Optimum temperature ([3]; in the absence of Ca2+): about 60 °C
- Optimum temperature ([3]; in the presence of 1 mM Ca2+): about 65 °C
- Optimum pH ([3]; incubated at 35° C. for 60 minutes): about 8.4
- Thermal stability ([4]; in the absence of Ca2+): up to 55 °C
- Thermal stability ([4]; in the presence of 1 mM Ca2+): ≤ 60 °C
